Data: US20260263521A1, “ANTI-CD200R1 ANTIBODY AND USE THEREOF” (AIMED BIO INC., priority 2023, published 2026)

T1: mouse CD200R1 protein (Mus musculus, UniProt Q9ES57)
T1 construct: purchased R&D systems 2554-CD
T1 sequence (Q9ES57 26-326): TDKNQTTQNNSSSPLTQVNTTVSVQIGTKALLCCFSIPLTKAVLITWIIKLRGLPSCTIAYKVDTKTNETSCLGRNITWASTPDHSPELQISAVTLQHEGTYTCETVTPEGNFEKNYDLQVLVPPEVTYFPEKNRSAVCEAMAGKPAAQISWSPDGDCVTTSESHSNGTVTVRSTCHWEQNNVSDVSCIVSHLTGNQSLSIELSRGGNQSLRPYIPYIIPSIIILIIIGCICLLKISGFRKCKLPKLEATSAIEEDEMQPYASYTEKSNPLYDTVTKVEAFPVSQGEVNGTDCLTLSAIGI

T2: CD200R1 on U937-CD200R overexpressing cells (Homo sapiens, UniProt Q8TD46)
T2 construct: host or cells: U937 (CRL-1593.2)
T2 sequence (Q8TD46 25-348): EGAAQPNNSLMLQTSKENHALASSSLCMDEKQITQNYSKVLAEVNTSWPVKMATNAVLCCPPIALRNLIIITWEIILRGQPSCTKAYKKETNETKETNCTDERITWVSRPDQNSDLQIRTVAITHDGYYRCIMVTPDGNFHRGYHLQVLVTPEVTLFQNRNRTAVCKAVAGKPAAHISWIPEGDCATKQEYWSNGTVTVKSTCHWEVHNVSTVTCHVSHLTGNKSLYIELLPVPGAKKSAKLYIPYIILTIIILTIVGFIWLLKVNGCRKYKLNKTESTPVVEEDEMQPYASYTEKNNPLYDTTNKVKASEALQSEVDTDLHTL


Legend:
[1] = biological target: T1, mouse CD200R1 protein; test: ELISA binding to mouse CD200R1; conditions: concentrations up to 300 nM
Description: 96-well plates were coated with human CD200R1 (R&D systems, 3414-CD) and mouse CD200R1 protein (R&D systems, 2554-CD) at a concentration of 2 μg/mL at 4° C. for 16 hours and then were blocked with 3% skim milk. The result was treated with the antibodies at concentrations of 300 nM, 60 nM, 12 nM, 2.4 nM, 0.48 nM, 0.096 nM, and 0.0192 nM, and reacted at room temperature for 2 hours.
The result was washed with PBST and distilled water, the samples were bound with a goat-derived HRP-conjugated anti-human antibody (Invitrogen, 31482, Goat anti-Human IgG F(ab′)2 Secondary Antibody, HRP) for 1 hour at room temperature, and then washed again with PBST and distilled water. Color was developed with a TMB substrate solution (Thermo Scientific, 34029, 1-Step™ TMB-ELISA Ultra Substrate Solution). The color reaction was stopped with stop solution (Invitrogen, SS04, ELISA Stop Solution). The absorbance was measured at an optical density of 450 nm.

[2] = system: monkey CD200R1; test: ELISA binding to monkey CD200R1; conditions: Example 14
Source text: Therefore, the LC D51 and LC D92 sequences were not substituted during the optimization process. However, since LC N30 and LC N31 can play an important role in the specific binding of antibodies as paratopes, the sequences were substituted and optimized. Through rational design, LC S52 and LC S94 were substituted with K and R, respectively, to derive P001009v1, and LC S52 and LC D93 were substituted with K and R, respectively, to derive P001009v2. Further, P001009v3, in which LC N30 was substituted with S, and P001009v4, in which LC N31 was substituted with K, were derived and produced, and the binding ability to human, mouse, and monkey CD200R1 was analyzed by ELISA (FIG. 15). […] Both […] and variants thereof had very weak binding ability to mouse CD200R1 at concentrations up to 300 nM.

[3] = biological target: T2, CD200R1 on U937-CD200R overexpressing cells; test: Cell binding assay (flow cytometry), U937-CD200R1 cells; type: cell-based; conditions: serial dilution from 100 nM
Description: Binding ability was determined in HH, an endogenous T cell line with high CD200R1 expression, and two additional overexpressing cell lines: U937-CD200R overexpressing cells, generated by intranuclear injection of human CD200R1 CDNA into the monocytic cell line U937 (CRL-1593.2) (Source: UMC Utrecht, the Netherlands) and Jurkat-CD200R overexpressing cells, were also cells engineered using a similar method.
All cell lines were maintained in RPMI 1640 medium supplemented with 10% heat-inactivated FBS and 1% penicillin/streptomycin (P/S) and cell binding was determined in the same manner as in Example 12. Two additional wells were treated with 10 μl of mouse IgG1K (BD, #555751) and 5 μl of commercial CD200R1 antibody (Biolegend, #329308) to determine CD200R1 expression on the cell line surface for cell quality control.
Specific binding ability was determined using P001009 WT and antibody-optimized mutants, P001009v1, P001009v2, P001009v3, and P001009v4. The antibodies were serially diluted 10-fold from a maximum concentration of 100 nM to 10 nM, 1 nM, […], and were added to the pre-seeded cells. […] Using GraphPad Prism software, the EC50 was determined using a nonlinear graph model of log (agonist) vs. response-variable slope, as shown in Table 32.

[4] = system: contact dermatitis animal model; test: Contact dermatitis animal model (oxazolone); type: in vivo, C57BL/6 mice; conditions: 20 mg/kg intravenously
Description: An in vivo contact dermatitis animal model was established to evaluate the anti-inflammatory efficacy of the anti-CD200R1 antibody. Ten-week-old female C57BL/6 mice were used for the contact dermatitis model. The animals were anesthetized and the abdominal hair thereof was removed. The following day, the shaved abdominal area was sensitized with 100 μL of 3% oxazolone in ethanol. Seven days after sensitization, P001009v1 was administered intravenously at a dose of 20 mg/kg. Four hours later, the thickness of both ears was measured. Then, both ears were sensitized with 2% oxazolone in 10 μL of ethanol. The thickness of both ears was measured again at 24 and 48 hours, and changes in ear edema thickness were recorded. Statistical analysis was performed using one-way ANOVA.

Molecule	binding ability to mouse CD200R1 [1]	binding ability to monkey CD200R1 compared to parent [2]	binding ability to U937-CD200R1 [3]	anti-inflammatory efficacy after 48 hours ([4]; 48 hours)	anti-inflammatory response (ear edema thickness) ([4]; compared to control group)
P001009: phage display anti-CD200R1 clone; VH SEQ ID NO: 79, VL SEQ ID NO: 94 (antibody, V domains shown) VH: EVQLLESGGGLVQPGGSLRLSCAASGFTFSSYDMSWVRQAPGKGLEWVSWISHGGGSIYYADSVKGRFTISRDNSKNTLYLQMNSLRAEDTAVYYCARDAPAYSAPLFDYWGQGTLVTVSS VL: QSVLTQPPSASGTPGQRVTISCSGSSSNIGNNAVNWYQQLPGTAPKLLIYYDSNRPSGVPDRFSGSKSGTSASLAISGLRSEDEADYYCAAWDDSLSGYVFGGGTKLTVL	very weak				
P001009v1: P001009 variant, LC S52 and LC S94 substituted with K and R; VH SEQ ID NO: 79 (antibody, V domains shown) VH: EVQLLESGGGLVQPGGSLRLSCAASGFTFSSYDMSWVRQAPGKGLEWVSWISHGGGSIYYADSVKGRFTISRDNSKNTLYLQMNSLRAEDTAVYYCARDAPAYSAPLFDYWGQGTLVTVSS VL: QSVLTQPPSASGTPGQRVTISCSGSSSNIGNNAVNWYQQLPGTAPKLLIYYDKNRPSGVPDRFSGSKSGTSASLAISGLRSEDEADYYCAAWDDRLSGYVFGGGTKLTVL		improved	exhibited binding ability	maintained	significant anti-inflammatory response
